Assay results published in patent US20240424056A1, “Peptides for Anti Fibrotic Therapy” (McMaster University, priority 2021, published 2024).
Ends that are not written are not given here.

Columns and labels:
Format in all cases: cell-based
[1] = tested on: csGRP78 interaction with α2M*; experiment: HG-induced profibrotic signaling and matrix production in human proximal tubular cell line HK2; details: proximal tubular cells; FIG. 8E
Method: (§1) Cell Culture-Primary mesangial cells (MC) were obtained from male C57BL/6 mice by glomerular sieving and cultured in Dulbecco's modified Eagle's medium (Sigma) supplemented with 20% fetal bovine serum, streptomycin (100 μg/mL) and penicillin (100 μg/mL). 1LN prostate cancer cells, which express high levels of csGRP78 (as described in Hart et al., J Biol Chem. 2002; 277 (44): 42082-42087) were cultured in RPMI 1640 supplemented with 10% fetal bovine serum (ThermoFisher). Cells were grown at 37° C. in 95% 02 and 5% CO2. The immortalized human proximal tubular cell line HK2 (ATCC, Burlington, Canada) was cultured in 10% FBS in DMEM/F12 medium. Primary rat renal fibroblasts (Cell Biologics, Burlington, Canada) and cultured in 10% FBS in DMEM/F12 medium. MC were serum deprived in medium with 1% bovine serum albumin (BSA) and HK2 and RF cells were starved in 0.5% FBS 24 h before treatment with HG (30 mM), mannitol (24.4 mM) as osmotic control or methylamine-activated α2M (100 pM). The peptide sequence in GRP78 to which α2M* binds was used to block their interaction (CLIGRTWNDPSVQQDIKFL) (Leu^98-Leu^115 with an additional N-terminal cysteine) (Gopal et al., J Biol Chem. 2016; 291 (20): 10904-10915). The scrambled peptide, GTNKSQDLWIPQLRDVFI (SEQ ID NO: 4) was used as a control, with both peptides used at 100 nM (Cedarlane). […]

α2M*/csGRP78 interaction [2] = target: T1, α2M*/csGRP78 interaction (Mus musculus, UniProt Q6GQT1); experiment: High glucose (HG)-induced profibrotic responses in primary mesangial cells (MC), immunoblotting; details: for HG-induced Akt activation (pAkt on S473) / HG-induced upregulation of fibronectin (FN), collagen (Col) IV and CTGF: MC, HG 48 h, peptides 100 nM; for HG-induced Akt activation (pAkt on S473): FIG. 4B; for HG-induced upregulation of fibronectin (FN), collagen (Col) IV and CTGF: FIG. 4C; for HG-induced profibrotic responses in MC: FIG. 11B, 11D
T1 construct: endogenous in cells; host or cells: primary mouse mesangial cells (C57BL/6)
T1 sequence (Q6GQT1 33-1474): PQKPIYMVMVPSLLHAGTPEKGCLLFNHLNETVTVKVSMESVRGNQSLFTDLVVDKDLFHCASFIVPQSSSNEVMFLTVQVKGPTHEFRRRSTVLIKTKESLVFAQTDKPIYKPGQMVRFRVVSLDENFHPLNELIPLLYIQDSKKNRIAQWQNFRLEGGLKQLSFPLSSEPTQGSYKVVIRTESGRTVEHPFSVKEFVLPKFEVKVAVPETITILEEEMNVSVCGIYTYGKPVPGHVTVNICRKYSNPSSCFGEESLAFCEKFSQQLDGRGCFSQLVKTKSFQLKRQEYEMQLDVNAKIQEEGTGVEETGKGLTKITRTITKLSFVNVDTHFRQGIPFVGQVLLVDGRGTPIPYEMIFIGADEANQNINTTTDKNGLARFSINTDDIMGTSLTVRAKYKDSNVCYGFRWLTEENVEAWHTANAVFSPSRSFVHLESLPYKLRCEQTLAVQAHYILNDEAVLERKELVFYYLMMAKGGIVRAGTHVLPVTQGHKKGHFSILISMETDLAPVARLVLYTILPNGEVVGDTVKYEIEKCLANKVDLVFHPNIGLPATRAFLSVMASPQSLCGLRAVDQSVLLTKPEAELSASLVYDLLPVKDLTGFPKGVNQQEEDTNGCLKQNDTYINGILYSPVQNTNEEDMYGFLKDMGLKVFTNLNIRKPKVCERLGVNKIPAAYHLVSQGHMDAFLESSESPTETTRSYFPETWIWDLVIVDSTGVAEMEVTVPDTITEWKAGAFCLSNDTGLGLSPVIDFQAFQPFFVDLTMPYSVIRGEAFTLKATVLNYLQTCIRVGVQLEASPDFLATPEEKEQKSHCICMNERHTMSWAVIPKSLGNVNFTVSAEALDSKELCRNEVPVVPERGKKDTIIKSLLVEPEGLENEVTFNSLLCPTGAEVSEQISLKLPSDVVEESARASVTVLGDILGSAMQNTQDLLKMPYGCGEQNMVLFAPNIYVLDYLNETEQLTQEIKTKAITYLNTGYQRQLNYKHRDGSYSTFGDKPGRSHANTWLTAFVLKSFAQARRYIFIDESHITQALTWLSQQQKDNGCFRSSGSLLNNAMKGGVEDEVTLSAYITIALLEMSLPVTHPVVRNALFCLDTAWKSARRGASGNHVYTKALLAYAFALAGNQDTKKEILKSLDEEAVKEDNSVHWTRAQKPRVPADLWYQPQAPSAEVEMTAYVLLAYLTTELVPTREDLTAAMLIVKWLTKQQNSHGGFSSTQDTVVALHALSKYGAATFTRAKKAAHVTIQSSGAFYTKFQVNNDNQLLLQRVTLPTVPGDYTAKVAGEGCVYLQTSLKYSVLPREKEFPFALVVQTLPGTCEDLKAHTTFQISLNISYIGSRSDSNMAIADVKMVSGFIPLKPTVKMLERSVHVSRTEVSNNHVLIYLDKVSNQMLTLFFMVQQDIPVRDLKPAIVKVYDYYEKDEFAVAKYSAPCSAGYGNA
Method: Cell Culture-Primary mesangial cells (MC) were obtained from male C57BL/6 mice by glomerular sieving and cultured in Dulbecco's modified Eagle's medium (Sigma) supplemented with 20% fetal bovine serum, streptomycin (100 μg/mL) and penicillin (100 μg/mL). 1LN prostate cancer cells, which express high levels of csGRP78 (as described in Hart et al., J Biol Chem. 2002; 277 (44): 42082-42087) were cultured in RPMI 1640 supplemented with 10% fetal bovine serum (ThermoFisher). Cells were grown at 37° C. in 95% 02 and 5% CO2. The immortalized human proximal tubular cell line HK2 (ATCC, Burlington, Canada) was cultured in 10% FBS in DMEM/F12 medium. Primary rat renal fibroblasts (Cell Biologics, Burlington, Canada) and cultured in 10% FBS in DMEM/F12 medium. MC were serum deprived in medium with 1% bovine serum albumin (BSA) and HK2 and RF cells were starved in 0.5% FBS 24 h before treatment with HG (30 mM), mannitol (24.4 mM) as osmotic control or methylamine-activated α2M (100 pM). The peptide sequence in GRP78 to which α2M* binds was used to block their interaction (CLIGRTWNDPSVQQDIKFL) (Leu^98-Leu^115 with an additional N-terminal cysteine) (Gopal et al., J Biol Chem. 2016; 291 (20): 10904-10915). The scrambled peptide, GTNKSQDLWIPQLRDVFI (SEQ ID NO: 4) was used as a control, with both peptides used at 100 nM (Cedarlane). Additional peptides were synthesized by Biomatik as follows: 1) peptide lacking the N-terminal cysteine, 2) peptide in which the cysteine was replaced by a methionine, 3) dimerized peptide via the cysteine (LFKIDQQVSPDNWTRGILC—S—S— CLIGRTWNDPSVQQDIKFL) (SEQ ID NO: 5) head to tail cyclization via an amide which leaves the cysteine intact.
Protein Extraction and Immunoblotting-Cells were lysed as described previously (Krepinsky et al. Nitric Oxide Inhibits Stretch-Induced MAPK Activation in Mesangial Cells Through RhoA Inactivation. Published online 2003. doi: 10.1097/01.ASN.00000940.85.04161.A7). Proteins were separated using SDS-PAGE followed by immunoblotting. Antibodies used were: α2M (1:1000, Bioss), mouse monoclonal F-α2M, which detects only conformationally changed α2M* as previously described (1:1000), pAkt S473 (1:1000, Cell Signaling), total Akt (1:1000, Cell Signaling),), pSmad3 Ser423/425 (1:4000, Novus), total Smad3 (1:1000, Abcam), phosphorylated focal adhesion kinase (pFAK) Tyr-397 (1:1000, Millipore, 07-012), FAK (1:1000, Santa Cruz Biotechnology, SC558), LRP1 (1:1000, Abcam), GRP78 (C20) (1:1000, Santa Cruz), platelet derived growth factor-β (PDGFR-β) (1:1000, Cedarlane), collagen IV (Col IV) (1:1000, Cell Signaling), fibronectin (FN) (1:1000, Abcam), connective tissue growth factor (CTGF) (1:1000, Santa Cruz), and tubulin (1:2000, Santa Cruz).

[3] = tested on: csGRP78 interaction with α2M*; experiment: HG-induced profibrotic signaling and matrix production in primary rat renal fibroblasts; details: FIG. 8F
Method: as §1

α2M*/csGRP78 interaction [4] = target: T2, α2M*/csGRP78 interaction (Homo sapiens, UniProt P01023); experiment: Intracellular calcium assay (Fura-2AM) in 1LN cells treated with α2M*
T2 construct: host or cells: 1LN prostate cancer cells (endogenous csGRP78); α2M* added from outside
T2 sequence (P01023 24-1474): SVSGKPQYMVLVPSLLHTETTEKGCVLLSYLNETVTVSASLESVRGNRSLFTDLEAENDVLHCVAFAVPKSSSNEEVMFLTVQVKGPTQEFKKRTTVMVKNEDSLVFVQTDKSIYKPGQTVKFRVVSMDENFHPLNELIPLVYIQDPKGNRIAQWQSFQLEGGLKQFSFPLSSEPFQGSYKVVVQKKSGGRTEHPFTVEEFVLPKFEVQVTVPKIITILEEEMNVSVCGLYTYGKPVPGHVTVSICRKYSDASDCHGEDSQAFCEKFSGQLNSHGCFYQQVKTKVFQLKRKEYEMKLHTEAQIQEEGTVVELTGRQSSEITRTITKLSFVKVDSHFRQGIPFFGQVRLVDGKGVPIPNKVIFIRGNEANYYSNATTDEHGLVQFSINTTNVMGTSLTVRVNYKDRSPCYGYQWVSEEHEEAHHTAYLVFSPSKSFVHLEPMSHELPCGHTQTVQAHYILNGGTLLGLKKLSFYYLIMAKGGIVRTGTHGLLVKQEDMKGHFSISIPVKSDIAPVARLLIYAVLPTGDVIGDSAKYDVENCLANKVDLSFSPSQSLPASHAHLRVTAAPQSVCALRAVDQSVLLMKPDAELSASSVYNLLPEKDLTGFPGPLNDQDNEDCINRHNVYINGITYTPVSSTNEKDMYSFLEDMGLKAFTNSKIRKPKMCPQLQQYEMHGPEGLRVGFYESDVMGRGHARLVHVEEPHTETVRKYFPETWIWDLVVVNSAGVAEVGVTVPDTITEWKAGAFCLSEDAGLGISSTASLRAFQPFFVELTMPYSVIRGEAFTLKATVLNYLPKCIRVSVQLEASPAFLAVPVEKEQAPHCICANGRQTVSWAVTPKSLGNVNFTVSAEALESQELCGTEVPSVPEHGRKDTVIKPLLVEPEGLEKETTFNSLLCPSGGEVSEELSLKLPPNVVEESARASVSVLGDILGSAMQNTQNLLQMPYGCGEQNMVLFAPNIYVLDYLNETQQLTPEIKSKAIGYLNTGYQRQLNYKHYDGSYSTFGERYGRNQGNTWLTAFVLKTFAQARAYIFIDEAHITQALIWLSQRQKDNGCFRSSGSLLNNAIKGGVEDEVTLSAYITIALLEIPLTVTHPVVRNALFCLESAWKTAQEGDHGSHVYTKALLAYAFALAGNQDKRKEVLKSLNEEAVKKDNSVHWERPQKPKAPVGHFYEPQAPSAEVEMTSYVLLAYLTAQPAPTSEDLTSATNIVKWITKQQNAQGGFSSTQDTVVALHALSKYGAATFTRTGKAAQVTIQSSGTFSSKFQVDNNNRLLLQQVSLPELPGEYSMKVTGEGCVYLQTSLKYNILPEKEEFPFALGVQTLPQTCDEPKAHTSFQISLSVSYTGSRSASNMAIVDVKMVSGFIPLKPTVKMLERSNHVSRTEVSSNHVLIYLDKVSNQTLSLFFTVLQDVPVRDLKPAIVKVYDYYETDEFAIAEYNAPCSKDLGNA
Method: as §1, with “10904-10915).” for “10904-10915). The scrambled peptide, GTNKSQDLWIPQLRDVFI (SEQ ID NO: 4) was used as a control, with both peptides used at 100 nM (Cedarlane).”
Intracellular Calcium Assay—1LN cells were plated in a 96 black walled clear bottom plate and allowed to grow to confluence over 2 days. After loading with the calcium indicator Fura-2AM (5 μM, Abcam) in HBSS for 45 minutes at 37° C. in the dark, baseline fluorescence readings were taken every minute for 5 minutes using a temperature-controlled fluorescent microplate reader (Gemini EM Spectra Max, Molecular Devices) set to 340 and 380 nm excitation and 510 nm emission. After treatment with methylamine-activated α2M (100 pM) with or without antibody (Fα2M or control IgG, 2 μg) and with or without peptide or scrambled peptide (100 nM), readings were taken every minute for 15 minutes. Intracellular calcium concentrations were determined by calculating the ratio of fluorescence signal (340/380 nm).

Substance | HG-induced Akt activation (pAkt on S473) (α2M*/csGRP78 interaction [2]) | HG-induced upregulation of fibronectin (FN), collagen (Col) IV and CTGF (α2M*/csGRP78 interaction [2]) | HG-induced profibrotic responses in MC (α2M*/csGRP78 interaction [2]) | other results
CLIGRTWNDPSVQQDIKFL [Pep] | prevented HG-induced Akt activation | prevented | – | HG-induced Akt activation (Ser473) and ECM production [1]: attenuated; HG-induced Akt activation (Ser473) and ECM production [3]: attenuated; release of intracellular calcium stores in response to α2M* (α2M*/csGRP78 interaction [4]; 1-LN cells, α2M* 100 pM, 15 min, peptides 100 nM, FIG. 4A): inhibited release of intracellular calcium stores
GTNKSQDLWIPQLRDVFI [Scr, scrambled control peptide, reference compound] | had no effect | had no effect | – | –
LFKIDQQVSPDNWTRGILC—S—S— CLIGRTWNDPSVQQDIKFL (also: homodimer via disulfide between the N-terminal cysteines of two copies) [Dimer Pep, dimerized peptide via the cysteine] | – | – | do not prevent HG-induced profibrotic responses | calcium signaling in 1LN cells induced by α2M* (α2M*/csGRP78 interaction [4]; FIG. 11C): do not inhibit calcium signaling
LIGRTWNDPSVQQDIKFL [Pep woC, peptide without an N-terminal cysteine residue in Leu98-Leu115] | – | – | does not prevent HG-induced profibrotic responses | calcium signaling in 1LN cells induced by α2M* (α2M*/csGRP78 interaction [4]; peptide tested at 100 pM and 100 nM, FIG. 11A): did not inhibit calcium signaling
